Laboratory results taken from patent US20180128830A1, “DETECTION OF HUMAN CYTOMEGALOVIRUS IN BREAST CANCER” (priority 2015, published 2018).
Values joined by “and” are separate entries in the source; they are usually repeats but may differ in a detail not shown here. Equal entries are not always repeated.

Assays:
MDA-MB-231 cells [1] = assay: Transcriptional profiling, Human Tumor Metastasis RT2 Profiler PCR Array; format: cell-based; settings: 100 ng/mL, 5 hrs
Procedure: RNA was harvested from 10×10^6 MDA-MB-231 cells that were mock treated or treated with 100 ng/mL cmvIL-10 or hIL-10 for 5 hrs using the RNeasy Midi Kit and RNAse-Free DNase set (Qiagen, Valencia, Calif.). From the isolated RNA, cDNA was prepared using the RT^2 First Strand Kit (SA Biosciences, Frederick, Md.) and subsequently loaded into a 96-well breast cancer metastasis profiler PCR array (PAHS-028ZD) with system RT^2 SYBR Green Mastermix (SA Biosciences). The plates were run using the CFX96 Real-Time system cycler (BioRad, Hercules, Calif.) with the following amplification program: 95° C. for 10 min, 95° C. for […] with a slow ramp rate for 1.0 c/sec and 60° C. for 1 min. The data from three biological replicates for each treatment was analyzed by the ΔΔCT method according to manufacturer's instructions using the RT^2 profiler PCR array data analysis program located on the SABiosciences web portal and is reported as fold change relative to control.

Stat3 = assay: Western blot for Stat3 phosphorylation in MDA-MB-231 cells; format: cell-based, human; settings: 100 ng/ml, 15 min
Procedure: For western blotting, cells were treated with 100 ng/ml cmvIL-10, hIL-10, IFNγ or PBS for 15 min, then harvested into cell lysis buffer (150 mM NaCl, 20 mM HEPES, 0.5% Triton-X-100, 1 mM NaOV4, 1 mM EDTA, 0.1% NaN3). Lysates were clarified, proteins were separated via SDS-PAGE, and then transferred to a nitrocellulose membrane. Then membrane was incubated in blocking solution (5% milk+1×TBS-T) for 1 hr, then probed with primary antibody at a 1:1000 dilution (total Stat3 or pStat3, total Stat1 or pStat1) in blocking solution overnight at 4° C. After washing, the membranes were incubated with a 1:2000 dilution of appropriate AP-conjugated secondary antibody and bands were detected using Western Blue stabilized AP substrate (Promega, Madison, Wis.). For analysis of secreted proteins, supernatants were collected at various time points, analyzed by SDS-PAGE and then immunoblotted as above for cmvIL-10, hIL-10, or serpin E1/PAI.

MDA-MB-231 cells [2] = assay: Standard cell counts (hemacytometer); format: cell-based, human; settings: 100 ng/ml, 6-well dishes
Procedure: Cells were seeded into 96-well dishes at a density of 1×10^4 cell per well in complete medium with varying doses of cmvIL-10, and then cell viability measured at the indicated time points using the Cell Titer Glo Assay kit according to manufacturer's instructions (Promega). DNA synthesis was measured in cells prepared in the same way using the BrdU Cell Proliferation ELISA Kit (Roche, Basel, Switzerland). For experiments using inhibitors, cells were cultivated in 96-well dishes as above with a final concentration of 10 μM inhibitor and BrdU incorporation evaluated after 72 hrs. For cell counts, cells were seeded into 6-well plates at a density of 2×10^5 cells per well, harvested via trypsinization, and counted using a hemacytometer at the indicated time points. The TACS Annexin V-FITC Detection Kit (Trevigen, Gaithersburg, Md.) was used to stain cells harvested from 70% confluent T75 flasks that had been treated with 100 μM etoposide for 48 hrs in the presence or absence of 100 ng/ml cmvIL-10. Cells were then analyzed via flow cytometry to detect fluorescence. For viability assays, Cell Titer Glo reagent was utilized to quantify cells that had been seeded into 96-well dishes at a density of 1×10^4 cell per well in complete medium with varying doses of etoposide in the presence or absence of 100 ng/ml cmvIL-10 as indicated

B1: cmvIL-10 (protein)
chain: ATTTTIKNTKPQCRPEDYATRLQDLRVTFHRVKPTLQREDDYSVWLDGTVVKGCWGCSVMDWLLRRYLEIVFPAGDHVYPGLKTELHSMRSTLESIYKDMRQCPLLGCGDKSVISRLSQEAERKSDNGTRKGLSELDTLFSRLEEYLHSRK
- MCAM fold change expressed as negative fold (down-regulation) (MDA-MB-231 cells [1]; MCAM mRNA): −1.32 fold
- Fold Change vs. Mock, MDM2 (MDA-MB-231 cells [1]; MDM2 mRNA): 0.9531 fold
- Fold Change vs. Mock, MET (MDA-MB-231 cells [1]; MET mRNA): 0.9833 fold
- Fold Change vs. Mock, METAP2 (MDA-MB-231 cells [1]; METAP2 mRNA): 1.1295 fold
- Fold Change vs. Mock, MGAT5 (MDA-MB-231 cells [1]; MGAT5 mRNA): 1.1795 fold
- Fold Change vs. Mock, MMP2 (MDA-MB-231 cells [1]; MMP2 mRNA): −1.1101 fold
- Fold Change vs. Mock, MMP3 (MDA-MB-231 cells [1]; MMP3 mRNA): 2.75 fold and 2.7478 fold
- Fold Change vs. Mock, MMP7 (MDA-MB-231 cells [1]; MMP7 mRNA): 0.9416 fold
- Fold Change vs. Mock, MMP9 (MDA-MB-231 cells [1]; MMP9 mRNA): 1.0233 fold
- Fold Change vs. Mock, MMP10 (MDA-MB-231 cells [1]; MMP10 mRNA): 0.5980 fold
- Fold Change vs. Mock, MMP11 (MDA-MB-231 cells [1]; MMP11 mRNA): 0.7026 fold
- Fold Change vs. Mock, MMP13 (MDA-MB-231 cells [1]; MMP13 mRNA): 0.8127 fold
- Fold Change vs. Mock, MTA1 (MDA-MB-231 cells [1]; MTA1 mRNA): 0.7388 fold
- MTSS1 fold change expressed as negative fold (down-regulation) (MDA-MB-231 cells [1]; MTSS1 mRNA): −3.28 fold
- Fold Change vs. Mock, MYC (MDA-MB-231 cells [1]; MYC mRNA): 0.8113 fold
- Fold Change vs. Mock, MYCL1 (MDA-MB-231 cells [1]; MYCL1 mRNA): 0.5260 fold
- Fold Change vs. Mock, NF2 (MDA-MB-231 cells [1]; NF2 mRNA): 1.0742 fold
- Fold Change vs. Mock, NME1 (MDA-MB-231 cells [1]; NME1 mRNA): 1.0358 fold
- Fold Change vs. Mock, NME4 (MDA-MB-231 cells [1]; NME4 mRNA): 0.8226 fold
- Fold Change vs. Mock, NR4A3 (MDA-MB-231 cells [1]; NR4A3 mRNA): 0.5389 fold
- Fold Change vs. Mock, PLAUR (MDA-MB-231 cells [1]; PLAUR (uPAR) mRNA): 1.59 fold and 1.5891 fold
- Fold Change vs. Mock, PNN (MDA-MB-231 cells [1]; PNN mRNA): 1.3088 fold
- Fold Change vs. Mock, PTEN (MDA-MB-231 cells [1]; PTEN mRNA): 0.7809 fold
- Fold Change vs. Mock, RB1 (MDA-MB-231 cells [1]; RB1 mRNA): 0.9548 fold
- Fold Change vs. Mock, RORB (MDA-MB-231 cells [1]; RORB mRNA): 0.6953 fold
- Fold Change vs. Mock, RPLP0 (MDA-MB-231 cells [1]; RPLP0 mRNA): 1.0376 fold
- Fold Change vs. Mock, RPSA (MDA-MB-231 cells [1]; RPSA mRNA): 0.9631 fold
- Fold Change vs. Mock, SERPINE1 (MDA-MB-231 cells [1]; SERPINE1 (PAI-1) mRNA): 2.68 fold and 2.6818 fold
- Fold Change vs. Mock, SET (MDA-MB-231 cells [1]; SET mRNA): 0.9664 fold
- Fold Change vs. Mock, SMAD2 (MDA-MB-231 cells [1]; SMAD2 mRNA): 0.6869 fold
- Fold Change vs. Mock, SMAD4 (MDA-MB-231 cells [1]; SMAD4 mRNA): 0.8384 fold
- Fold Change vs. Mock, SRC (MDA-MB-231 cells [1]; SRC mRNA): 0.5297 fold
- Fold Change vs. Mock, SSTR2 (MDA-MB-231 cells [1]; SSTR2 mRNA): 0.5556 fold
- Fold Change vs. Mock, SYK (MDA-MB-231 cells [1]; SYK mRNA): 0.8590 fold
- Fold Change vs. Mock, TCF20 (MDA-MB-231 cells [1]; TCF20 mRNA): 0.7823 fold
- Fold Change vs. Mock, TGEB1 (MDA-MB-231 cells [1]; TGEB1 (Transforming growth factor, beta 1) mRNA): 0.7173 fold
- Fold Change vs. Mock, TIMP2 (MDA-MB-231 cells [1]; TIMP2 mRNA): 0.7596 fold
- Fold Change vs. Mock, TIMP3 (MDA-MB-231 cells [1]; TIMP3 mRNA): 0.8155 fold
- Fold Change vs. Mock, TIMP4 (MDA-MB-231 cells [1]; TIMP4 mRNA): 0.7324 fold
- Fold Change vs. Mock, TNFSF10 (MDA-MB-231 cells [1]; TNFSF10 mRNA): 0.8169 fold
- Fold Change vs. Mock, TP53 (MDA-MB-231 cells [1]; TP53 mRNA): 0.6180 fold
- Fold Change vs. Mock, TRPM1 (MDA-MB-231 cells [1]; TRPM1 mRNA): 0.8113 fold
- Fold Change vs. Mock, TSHR (MDA-MB-231 cells [1]; TSHR mRNA): 0.8113 fold
- Fold Change vs. Mock, VEGFA (MDA-MB-231 cells [1]; VEGFA mRNA): 0.554 fold and 0.5541 fold
- VEGFA fold change expressed as negative fold (down-regulation) (MDA-MB-231 cells [1]; VEGFA mRNA): −1.80 fold
- 83 kD band of phosphorylated Stat3 (pStat3) (Stat3): detected
- cell numbers (MDA-MB-231 cells [2]): higher cell numbers than control cultures
